# Data as given in publication PMC10713829 (Nature Communications, 2023).
# Peptide text beside a SMILES is read from it.
# Experiments:
# HLA-A*01:01/hβ2m [1] = target: T1, HLA-A*01:01/hβ2m (Homo sapiens, UniProt P04439, /R68K/S129P/T187R/V100A/V91M/W191G); experiment: Fluorescence anisotropy competition with TAMRA-NRAS^Q61K; type: binding
# T1 construct: BirA substrate peptide (biotinylation tag, […]), seen only in the HDX-MS peptide map (C); made in house
# Experimental: TAMRA association with K61 was modeled to not disrupt interaction with the HLA-A*01:01 groove because K61 is solvent-exposed. […] NRAS peptides were prepared by chemical synthesis (GenScript, Piscataway, USA). […] Data was recorded on a SpectraMax iD5 plate reader with an excitation filter of λex = 531 nm and an emission filter of λem = 595 nm with an PMT gain set to high, an integration time of 1200 msec and read height 0.5 mm. Each experiment was performed in triplicate (n = 3) and is representative of at least two independent experiments. Experimental values were subtracted from background r values obtained from incubation of TAMRA-NRAS^Q61K alone. […] IC50 values were obtain by fitting to a simple single-site (one phase association) model with DynaFit (http://www.biokin.com/dynafit).
# HLA-A*01:01/hβ2m [2] = target: T2, HLA-A*01:01/hβ2m (Homo sapiens, UniProt P04439, A114D/A174V/A182V/D101N/D185E/E176A/E190D/L180R/Q94H/R68K/S129P/T187R/V100A/V91M/W191G); experiment: Hydrogen-deuterium exchange mass spectrometry (HDX-MS) of empty and peptide-loaded complexes; details: for Average % deuterium uptake: 600s
# T2 construct: BirA substrate peptide (biotinylation tag, […]), seen only in the HDX-MS peptide map (C); made in house
# [3] = fragment ASGSHSMRY 2-10, charge 2
# [4] = fragment ASGSHSMRY 2-10, charge 3
# [5] = fragment ASGSHSMRYF 2-11, charge 2
Compound,"% deuterium uptake of peptide fragments corresponding to the NRAS peptide (HLA-A*01:01/hβ2m [2]; HDX-MS of peptide/HLA-A*01:01/hβ2m, back-exchange corrected, pD 6.5, 25 °C, up to 600 s, biological triplicates)","Average % deuterium uptake (HLA-A*01:01/hβ2m [2]; fragment ASGSHSMRY 2-10, charge 1) [%]",Average % deuterium uptake (HLA-A*01:01/hβ2m [2]; [3]) [%],Average % deuterium uptake (HLA-A*01:01/hβ2m [2]; [4]) [%],Average % deuterium uptake (HLA-A*01:01/hβ2m [2]; [5]) [%],"deuterium uptake of the HLA-A*01:01 α2-1 helix (residues 139–155) in the peptide-loaded complex (HLA-A*01:01/hβ2m [2]; HDX-MS, back-exchange corrected, pD 6.5, 25 °C, comparison among peptide-loaded samples)",IC50 (HLA-A*01:01/hβ2m [1]) [nM]
CC[C@H](C)[C@H](N)C(=O)N[C@@H](CC(C)C)C(=O)N[C@@H](CC(=O)O)C(=O)N[C@H](C(=O)N[C@@H](C)C(=O)NCC(=O)N[C@@H](CCCCN)C(=O)N[C@@H](CCC(=O)O)C(=O)N[C@@H](CCC(=O)O)C(=O)N[C@@H](Cc1ccc(O)cc1)C(=O)O)[C@@H](C)O [NRAS^Q61K],–,–,–,–,–,–,260
CC[C@H](C)[C@H](N)C(=O)N[C@@H](CC(C)C)C(=O)N[C@@H](CC(=O)O)C(=O)N[C@H](C(=O)N[C@@H](C)C(=O)NCC(=O)N[C@@H](CCC(N)=O)C(=O)N[C@@H](CCC(=O)O)C(=O)N[C@@H](CCC(=O)O)C(=O)N[C@@H](Cc1ccc(O)cc1)C(=O)O)[C@@H](C)O [Q61] (H-ILDTAGQEEY-OH),–,–,–,–,–,–,278 ± 32

# The next lines start with results.
"% deuterium uptake of peptide fragments corresponding to the NRAS peptide (HLA-A*01:01/hβ2m [2]; HDX-MS of peptide/HLA-A*01:01/hβ2m, back-exchange corrected, pD 6.5, 25 °C, up to 600 s, biological triplicates)","Average % deuterium uptake (HLA-A*01:01/hβ2m [2]; fragment ASGSHSMRY 2-10, charge 1) [%]",Average % deuterium uptake (HLA-A*01:01/hβ2m [2]; [3]) [%],Average % deuterium uptake (HLA-A*01:01/hβ2m [2]; [4]) [%],Average % deuterium uptake (HLA-A*01:01/hβ2m [2]; [5]) [%],"deuterium uptake of the HLA-A*01:01 α2-1 helix (residues 139–155) in the peptide-loaded complex (HLA-A*01:01/hβ2m [2]; HDX-MS, back-exchange corrected, pD 6.5, 25 °C, comparison among peptide-loaded samples)",Compound,IC50 (HLA-A*01:01/hβ2m [1]) [nM]
approx. 75%,85.9593,85.2218,85.2836,76.8148,–,NRAS^Q61H: NRAS55-64 neoepitope peptide with Q61H mutation (ILDTAGHEEY),–
–,–,83.6219,84.5527,77.0018,significantly reduced deuterium uptake,NRAS^Q61L: NRAS55-64 neoepitope peptide with Q61L mutation (ILDTAGLEEY),–
–,–,83.2364,83.3198,78.2896,–,NRAS^Q61R: NRAS55-64 neoepitope peptide with Q61R mutation (ILDTAGREEY),–
